The test concerns the target T1, recombinant human full length Fzd7 (human, UniProt O75084 33-574).
T1 construct: Frizzled 7 (Fzd7), human, recombinant full length; also called full-length recombinant Fzd7; source: recombinant
In words: co-IP; recombinant human full length Fzd7 mixed in lysis buffer at 1:1 ratio with recombinant human full-length ILK, incubated overnight at 4 °C with anti-Fzd7 Ab; Western blot for ILK and Fzd7. The conditions noted are these: both partners purified.

B1: recombinant human full-length ILK (enzyme, UniProt Q13418 1-452, looked up)
chain: MDDIFTQCREGNAVAVRLWLDNTENDLNQGDDHGFSPLHWACREGRSAVVEMLIMRGARINVMNRGDDTPLHLAASHGHRDIVQKLLQYKADINAVNEHGNVPLHYACFWGQDQVAEDLVANGALVSICNKYGEMPVDKAKAPLRELLRERAEKMGQNLNRIPYKDTFWKGTTRTRPRNGTLNKHSGIDFKQLNFLTKLNENHSGELWKGRWQGNDIVVKVLKVRDWSTRKSRDFNEECPRLRIFSHPNVLPVLGACQSPPAPHPTLITHWMPYGSLYNVLHEGTNFVVDQSQAVKFALDMARGMAFLHTLEPLIPRHALNSRSVMIDEDMTARISMADVKFSFQCPGRMYAPAWVAPEALQKKPEDTNRRSADMWSFAVLLWELVTREVPFADLSNMEIGMKVALEGLRPTIPPGISPHVCKLMKICMNEDPAKRPKFDMIVPILEKMQDK
notes: Integrin-linked kinase (ILK), human, recombinant full length; also called full-length recombinant ILK; source: recombinant
As for B1, the binding result was “binds”.
